The source of these data is article PMC9385479, “GTSF1 accelerates target RNA cleavage by PIWI-clade Argonaute proteins” (Nature, 2022).

Where a chain is given by its changes, count along the chain named. Names and notes keep the numbering of the source.

The target of experiment [1] is MIWI (PIWIL1), mouse, 3×Flag–SNAP-tagged recombinant, loaded with a synthetic piRNA (MIWI piRISC) (mouse) (UniProt Q9JMB7).
Experiment [2] has as its target T1, MIWI (PIWIL1), mouse, 3×Flag–SNAP-tagged recombinant, loaded with a synthetic piRNA (MIWI piRISC) (mouse, UniProt Q9JMB7 1-862, methylarginines (positions in Extended Data Fig. 1h)).
T1 construct: Mouse MIWI (PIWIL1); cDNA from the Mammalian Gene Collection; not shown: 3×Flag, N-terminal, kept; SNAP, N-terminal, kept
T1 sequence (looked up): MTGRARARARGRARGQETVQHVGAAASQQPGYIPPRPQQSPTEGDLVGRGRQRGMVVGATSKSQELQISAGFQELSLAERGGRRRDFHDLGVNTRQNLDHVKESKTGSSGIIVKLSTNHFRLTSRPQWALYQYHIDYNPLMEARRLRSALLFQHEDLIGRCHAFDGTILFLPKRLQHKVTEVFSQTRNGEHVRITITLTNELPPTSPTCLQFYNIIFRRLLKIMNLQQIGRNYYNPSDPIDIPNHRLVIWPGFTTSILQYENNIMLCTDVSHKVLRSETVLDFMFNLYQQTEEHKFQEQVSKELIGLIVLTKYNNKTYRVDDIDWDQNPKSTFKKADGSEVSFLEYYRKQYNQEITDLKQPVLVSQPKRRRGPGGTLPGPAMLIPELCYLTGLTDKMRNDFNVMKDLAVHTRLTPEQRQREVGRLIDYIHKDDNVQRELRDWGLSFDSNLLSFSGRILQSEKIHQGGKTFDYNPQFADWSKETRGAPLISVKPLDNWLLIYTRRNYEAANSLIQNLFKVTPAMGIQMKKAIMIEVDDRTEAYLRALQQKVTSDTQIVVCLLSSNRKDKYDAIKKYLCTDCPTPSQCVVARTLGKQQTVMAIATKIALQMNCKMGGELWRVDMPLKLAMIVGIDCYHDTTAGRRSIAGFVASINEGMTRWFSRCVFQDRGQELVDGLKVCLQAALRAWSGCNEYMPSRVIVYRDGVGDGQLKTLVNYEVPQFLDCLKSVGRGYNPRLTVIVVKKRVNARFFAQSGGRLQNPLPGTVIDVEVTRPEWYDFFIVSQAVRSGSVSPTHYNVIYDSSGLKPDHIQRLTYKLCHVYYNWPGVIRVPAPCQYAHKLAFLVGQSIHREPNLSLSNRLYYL
The experiment is described as follows: enzyme kinetics titration (pre-steady-state target-cleavage rate k_burst against GTSF1 concentration); k_burst of MIWI piRISC measured at 1–5,000 nM GTSF1 and fit to kburst=kpot[GTSF1]/(Kd+[GTSF1]); Kd is for the MIWI piRISC–target RNA ternary complex. The settings on record: both partners purified.

In the case of “BmGtsf1-like, Bombyx mori, V5SBP-tagged purified recombinant (natural protein)”, the amount of target RNA cleaved by MIWI piRISC with 100 nM recombinant GTSF protein (fold increase) in experiment [1] was 2.6 fold.

B1: Gametocyte specific factor 1 (GTSF1), mouse, wild type, purified recombinant (natural protein, UniProt Q9DAN6 1-167, looked up)
chain: MEDTYIDSLDPEKLLQCPYDKNHQIRACRFPYHLIKCRKNHPDVANKLATCPFNARHQVPRAEISHHISSCDDKSCIEQDVVNQTRNLGQETLAESTWQCPPCDEDWDKDLWEQTSTPFVWGTASFCGNNSPANNIVMEHKSNLASGMRVPKSLPYVLPWKNNGNAQ
notes: Mouse GTSF1, tandem CHHC-type zinc-finger protein, printed mass 19,083 Da; cDNA synthesized at Twist Biosciences; Grown with 1 uM ZnSO4 (zinc-finger protein); also called wild-type GTSF1; MmGtsf1; source: E. coli Rosetta-Gami 2 (pCold-GST), purified (glutathione Sepharose, HRV3C cleavage, HiTrap Q)
On to B1, for which the Kd in experiment [2] turned out to be 8 nM.

B2: GTSF1(W98A/W107A/W112A), mouse, PIWI-interacting mutant, purified recombinant (natural protein, UniProt Q9DAN6 1-167, looked up)
chain: B1 chain with W98A, W107A, W112A
notes: Mouse GTSF1 with W98A, W107A and W112A; expression vector synthesized at Twist Biosciences; also called PIWI-int mutant GTSF1; source: E. coli Rosetta-Gami 2 (pCold-GST), purified (glutathione Sepharose, HRV3C cleavage, HiTrap Q)
In the case of B2, the Kd in experiment [2] was found to be 500 nM.

As usually defined, the Kd is the equilibrium constant for the complex coming apart.
